From the supplement of paper PMC10126150
± gives the standard deviation of the averaged measurements.

Test system: ATP
Experiment: switch fluorescence ratio, 500 uM ATP over buffer (Cy3 cluster intensity, sum of 5 cycles each) (fold (ratio)); higher = stronger signal-on switching upon ATP binding; sequences stand for … in TCGTCGGCAGCGTCAGATGTGTATAAGAGACAGTTTTTTTTTTTTTTTTTTTTTTTTT…TC
Details: aptamer strand: ATP DNA aptamer (quencher-CACCTGGGGGAGTATTGCGGAGGAAGG + anchor), 100 nM annealed; ATP concentration: 500 uM
Method in brief: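 Clusters carrying Cy3-labelled switching strands on a modified Illumina MiSeq flow-cell were annealed to 100 nM quencher-labelled ATP aptamer and imaged in selection buffer. They were imaged again after 15 min with 500 uM ATP at 22 °C, over five buffer/ATP cycles with NaOH stripping and re-annealing in between. For each cluster, the fluorescence ratio is the summed Cy3 intensity of the target cycles divided by that of the buffer cycles, averaged per switch-domain sequence. Clusters outside 100-1000 RFU were left out.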
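Note: ATP exposure 15 min at 22 °C before imaging.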

Sequence	switch fluorescence ratio
AAAAAAAAGA	0.996 ± 0.048
AAAAAAAAGG	1 ± 0.05
AAAAAAAGCG	0.979 ± 0.058
AAAAAACGTG	1.06 ± 0.091
AAAAAAGAAT	0.9938 ± 0.0096
AAAAAAGGAC	1.03 ± 0.044
AAAAAATCGG	1 ± 0.019
AAAAAATGGG	1.01 ± 0.012
AAAAACACCG	1.09 ± 0.078
AAAAACGGCT	0.99 ± 0.017
AAAAACGTCA	1.003 ± 0.0045
AAAAACTGAA	1.01 ± 0.02
AAAAAGAAAG	1.02 ± 0.022
AAAAAGATTT	1.05 ± 0.081
AAAAAGCTTT	1.026 ± 0.0047
AAAAAGGAGG	1 ± 0.015
AAAAAGGCTA	1.03 ± 0.017
AAAAAGTCGC	0.961 ± 0.022
AAAAAGTGGT	0.9827 ± 0.0041
AAAAATACGG	0.965 ± 0.057
AAAAATATGA	1.01 ± 0.053
AAAAATGAGA	0.998 ± 0.043
AAAAATGTTG	1 ± 0.053
AAAAATTCCG	1.045 ± 0.0036
AAAACACAGA	1.15 ± 0.14

Sequence	switch fluorescence ratio
AAAACACGTA	1.13 ± 0.035
AAAACGCGGT	1.2 ± 0.042
AAAACGGAGA	1.02 ± 0.014
AAAAGAGGTG	1.08 ± 0.034
AAAAGATAAA	0.977 ± 0.023
AAAAGCAGGG	1 ± 0.014
AAAAGCGGAT	1.025 ± 0.0063
AAAAGCGTTG	0.999 ± 0.013
AAAAGGAGTT	0.998 ± 0.016
AAAAGGCCGT	1.02 ± 0.0058
AAAAGGCGGT	1.01 ± 0.012
AAAAGGGATT	0.98 ± 0.012
AAAAGGGGCA	1.04 ± 0.051
AAAAGGGTA	0.957 ± 0.048
AAAAGGTCAG	1.01 ± 0.021
AAAAGTAACC	0.993 ± 0.026
AAAAGTAGGA	0.984 ± 0.065
AAAAGTATAA	1.03 ± 0.036
AAAAGTTGGT	1.02 ± 0.083
AAAAGTTTGT	1 ± 0.032
AAAATAAGGC	0.981 ± 0.03
AAAATAATTC	1 ± 0.059
AAAATATAGA	0.9798 ± 0.0025
AAAATCAGCC	1.07 ± 0.053
AAAATCAGGC	0.944 ± 0.085

Sequence	switch fluorescence ratio
AAAATCGGGA	1 ± 0.035
AAAATCTGCG	1.03 ± 0.041
AAAATCTTGT	1.04 ± 0.0066
AAAATGCGGT	0.996 ± 0.015
AAAATGCGTT	1.02 ± 0.029
AAAATGGCCA	1.02 ± 0.083
AAAATGGGCC	0.963 ± 0.033
AAAATGGGGC	1 ± 0.037
AAAATGTCGG	0.998 ± 0.012
AAAATGTTTT	1.02 ± 0.031
AAAATTATC	0.997 ± 0.019
AAAATTCGTA	1.028 ± 0.0022
AAAATTTAAC	1.01 ± 0.023
AAAATTTCAA	1.011 ± 0.0042
AAAATTTGTT	1 ± 0.015
AAAATTTTGG	1 ± 0.043
AAACACAGGG	1.07 ± 0.063
AAACAGGGGG	0.982 ± 0.028
AAACAGTAGA	1.07 ± 0.042
AAACATTTTG	1.02 ± 0.036
AAACCGACAT	1.27 ± 0.03
AAACCGGAAC	2.26 ± 0.1
AAACCGGGAC	1.55 ± 0.15
AAACCTATGG	0.986 ± 0.055
AAACGAAAAA	1.04 ± 0.044

Sequence	switch fluorescence ratio
AAACGAATGG	0.981 ± 0.022
AAACGCTGGT	1.01 ± 0.0087
AAACGGAGGG	0.996 ± 0.038
AAACGGCATC	1.073 ± 0.0074
AAACGGGCGG	0.996 ± 0.045
AAACGGGGAG	0.991 ± 0.021
AAACGGGGAT	0.992 ± 0.011
AAACGTAATA	1.31 ± 0.014
AAACGTCCT	1.07 ± 0.012
AAACTAAAAA	1 ± 0.033
AAACTAAGTT	1.041 ± 0.008
AAACTGGGGC	1.12 ± 0.022
AAACTGGGGT	0.999 ± 0.0016
AAACTTAAGA	0.996 ± 0.049
AAACTTAGC	1.03 ± 0.065
AAAGAAACTC	1.47 ± 0.7
AAAGAAAGGG	1 ± 0.029
AAAGAAATTC	1.02 ± 0.068
AAAGAATGGT	0.991 ± 0.054
AAAGAATTCG	0.974 ± 0.037
AAAGACATCT	1.02 ± 0.095
AAAGACGACA	1.27 ± 0.29
AAAGAGGAGG	0.984 ± 0.036
AAAGAGGCTT	0.983 ± 0.039
AAAGAGGTTC	1.04 ± 0.068

Sequence	switch fluorescence ratio
AAAGATATCT	0.979 ± 0.022
AAAGATTTTT	0.9851 ± 0.0092
AAAGCCGATG	1 ± 0.012
AAAGCCGGTA	1.01 ± 0.084
AAAGCGGGTC	1.04 ± 0.015
AAAGCGGTTA	1.007 ± 0.006
AAAGCGTGCG	0.964 ± 0.022
AAAGCTGAAT	0.992 ± 0.0057
AAAGCTGTAG	1.02 ± 0.038
AAAGCTGTTT	1.02 ± 0.014
AAAGGAACTC	0.999 ± 0.092
AAAGGACACA	1.061 ± 0.01
AAAGGATGTT	0.995 ± 0.041
AAAGGCCCCC	1.0047 ± 0.00068
AAAGGCGAGG	0.957 ± 0.015
AAAGGCTGAA	1.03 ± 0.048
AAAGGCTGGG	1.04 ± 0.087
AAAGGGAAAC	1.2 ± 0.28
AAAGGGAAGG	1.01 ± 0.018
AAAGGGAAGT	0.983 ± 0.048
AAAGGGAAT	1.02 ± 0.021
AAAGGGCATG	1 ± 0.011
AAAGGGGAGG	1.01 ± 0.033
AAAGGGGGAA	0.998 ± 0.026
AAAGGGGGT	1.01 ± 0.026

Sequence	switch fluorescence ratio
AAAGGGGGTG	1.02 ± 0.047
AAAGGGGTAG	0.9975 ± 0.0069
AAAGGGTACT	1.08 ± 0.064
AAAGGGTTGT	1.009 ± 0.009
AAAGGTGTTG	1.16 ± 0.23
AAAGGTTAAG	0.991 ± 0.015
AAAGGTTAGG	0.958 ± 0.029
AAAGGTTTCG	0.989 ± 0.015
AAAGGTTTTG	1 ± 0.02
AAAGTAATGG	1.04 ± 0.022
AAAGTAGAGG	0.969 ± 0.029
AAAGTAGGCT	1.01 ± 0.053
AAAGTATGCT	0.9898 ± 0.0015
AAAGTATTAA	1.014 ± 0.0026
AAAGTCAAGG	0.9933 ± 0.0029
AAAGTCTAGC	1.01 ± 0.019
AAAGTGAGGG	0.986 ± 0.013
AAAGTGATAT	1.01 ± 0.028
AAAGTGCTCT	0.981 ± 0.038
AAAGTGTACG	0.999 ± 0.03
AAAGTTAAGT	0.976 ± 0.0036
AAAGTTAGGG	1.01 ± 0.038
AAAGTTGCGG	1.016 ± 0.0045
AAAGTTGGAT	0.977 ± 0.012
AAAGTTTCGC	1 ± 0.019

Sequence	switch fluorescence ratio
AAAGTTTGAC	1 ± 0.035
AAATAAAATG	0.932 ± 0.11
AAATAAAATT	0.982 ± 0.03
AAATAACTGA	0.994 ± 0.029
AAATAAGTGA	0.979 ± 0.013
AAATACGGTG	1.17 ± 0.16
AAATATACGA	1.16 ± 0.15
AAATATATGT	0.997 ± 0.046
AAATATGGTT	1.02 ± 0.035
AAATCACGTA	1.1818 ± 4.2e-05
AAATCGATGT	1 ± 0.02
AAATCGGCTC	0.989 ± 0.025
AAATCTCATC	1.03 ± 0.014
AAATGAAGGG	1 ± 0.058
AAATGACGGG	1.005 ± 0.0076
AAATGAGTAG	1.02 ± 0.013
AAATGAGTTT	1.02 ± 0.013
AAATGATAAG	0.998 ± 0.021
AAATGCTATA	1.01 ± 0.022
AAATGCTTCA	1.03 ± 0.019
AAATGCTTTA	1.03 ± 0.022
AAATGGCCAC	1.01 ± 0.035
AAATGGGACC	1.012 ± 0.0042
AAATGGGCTG	1 ± 0.09
AAATGGTACT	1.01 ± 0.035

Sequence	switch fluorescence ratio
AAATGGTCT	1.016 ± 0.01
AAATGTAAGG	0.99 ± 0.034
AAATGTGGAG	0.984 ± 0.021
AAATGTTAAG	1.01 ± 0.032
AAATGTTTGC	1.01 ± 0.018
AAATTAAGGA	1.01 ± 0.031
AAATTAATCC	1.04 ± 0.038
AAATTAATTG	1.02 ± 0.036
AAATTACATT	1.02 ± 0.021
AAATTATCCA	1.016 ± 0.0092
AAATTCGACG	1.05 ± 0.046
AAATTTAGGT	1.01 ± 0.038
AAATTTCATA	1.03 ± 0.01
AAATTTGGTG	1.14 ± 0.14
AAATTTTAGG	1.034 ± 0.0013
AAATTTTTAG	1.02 ± 0.018
AAATTTTTGC	1.05 ± 0.015
AAATTTTTGT	1.001 ± 0.0065
AACAAACGGT	1.36 ± 0.057
AACAAATGGG	1.02 ± 0.052
AACAAGGGGA	1.07 ± 0.067
AACAAGTATG	1 ± 0.044
AACAATTATA	1.011 ± 0.0078
AACACGGCTG	1.05 ± 0.027
AACACTGATT	1.04 ± 0.026
